Test [1] addresses CD86/CD80. The following applies: CD28 interaction with CD86/CD80; reported; cited from earlier work.
For test [2], the target named is T1, His-MATH (Homo sapiens, UniProt O43791).
T1 construct: made in house; host or cells: E. coli BL21(DE3)
Briefly: Peptide competition assay in the in vitro Pup modification of MATH by PUP-IT^pep1. The test is classed as biochemical. The following applies: free peptide added at 1-512 μM; 0.2 μM His-MATH, 8 μM Pup(E); anti-His immunoblot. How it is done:
Pup modification were assayed at 37° C. for 30 min with purified recombinant proteins in a 20 μl reaction volume with 20 mM Tris 8.0, 100 mM NaCl, 10 mM ATP, and 15 mM MgCl2. The reaction also contains purified 1 μM PUP-IT, 10 μM Pup(E) or 10 mM bio-DE28. All the reactions were stopped by direct addition of 6×SDS loading buffer and analyzed on 4-20% SDS-PAGE gels (Genescript, cat. #M42015C).
Peptide competition assay (as in FIG. 2d) was performed in the presence of different peptides. Free pep1 (sequence […], SEQ ID NO: 12) and control peptide (sequence […], SEQ ID NO: 15) were synthesized and purified to >98% pure, confirmed by mass spectrometry. The peptides were dissolved in water and pH adjusted with Tris buffer to 7, stored as 2 mM stock in −80° C. The reactions were set up with 1 μM pup^SBC1, 0.2 μM His-MATH, and 8 μM Pup(E). Different amount of free pep1 or control peptide was added to each reaction to make the final peptide concentration at 1, 2, 4, 8, 16, 32, 64, 128, 256, and 512 μM. All the reactions were stopped by direct addition of 6×SDS loading buffer and analyzed on 4-20% SDS-PAGE gels, followed by immune-blotting with anti-His antibody to identify both unmodified and modified MATH. The density of modified MATH was quantified with ImageJ and then plotted with GraphPad Prism 6.

The target of test [3] is MATH domain from human SPOP (Homo sapiens, UniProt O43791). The note with it: peptide binding to MATH domain from human SPOP; known values; read-out: dissociation constant (Kd); cited from earlier work.

A value given as a limit tells only on which side of the number the result lay.

MATH domain from human SPOP, sequence (O43791 31-161 limits assumed): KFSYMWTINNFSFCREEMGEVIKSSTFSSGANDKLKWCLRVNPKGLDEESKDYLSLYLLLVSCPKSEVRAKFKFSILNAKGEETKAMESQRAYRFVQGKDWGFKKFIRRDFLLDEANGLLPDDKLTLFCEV
T1 sequence (O43791 31-161 limits assumed): as above

Regarding “CD28: co-stimulating receptor normally expressed on the surface of T cells”, the dissociation constant (Kd) in test [1] was 4 µM.
Take “SPOP substrate-derived MATH-binding peptide LACDEVTSTTSSSTA (SEQ ID NO: 12) [pep1]”: the “inhibition of MATH modification” value in test [2] is “dose-dependent inhibition of MATH modification”. Besides, the Kd in test [3] was 3.7 µM.
In the case of “SPOP substrate-derived MATH-binding peptide SELDSPSSTSSSSGI (SEQ ID NO: 14), the weakest binder [pep3]”, the Kd in test [3] was > 250 µM.
In the case of “SPOP substrate-derived MATH-binding peptide TLFPDVSSSTHPYHG (SEQ ID NO: 13) [pep2]”, the Kd in test [3] was 76 µM.
Turning to “pep1(mut): mutated pep1 peptide LACDEDTAAASSSTA (SEQ ID NO: 15), known to have defect on MATH binding”, the “inhibition of MATH modification” value in test [2] is recorded as “could not be fully inhibited”.

Usually Kd stands for a measure of binding affinity in units of concentration.

The record behind these values is patent publication US11467166B2, “Compositions and methods for detecting molecule-molecule interactions” (ShanghaiTech University, priority 2017, dated 2022).
